Results on 27 molecules are retold here after article PMC10786891, “Massively parallel profiling of RNA-targeting CRISPR-Cas13d”.

B1: target 1 C2A,G5U (mixed)
RNA 1: CACCCGUGCAAAAAUGCAGGGGUCUAAAACUGAGCGGAUAACCUCUCUAUGG
RNA 2: GGGAAUGGAUCCACAUCUACGAAUUCGUACCAUAGAGAGGUUAUCCUCUAACCGAGAUCGGAAGAGCACACGU
B2: target 1 G12U,U19C (mixed)
RNA 1: CACCCGUGCAAAAAUGCAGGGGUCUAAAACUGAGCGGAUAACCUCUCUAUGG
RNA 2: GGGAAUGGAUCCACAUCUACGAAUUCGUACCACAGAGAGUUUAUCCGCUCACCGAGAUCGGAAGAGCACACGU
B3: target 1 G12A,A14C (mixed)
RNA 1: CACCCGUGCAAAAAUGCAGGGGUCUAAAACUGAGCGGAUAACCUCUCUAUGG
RNA 2: GGGAAUGGAUCCACAUCUACGAAUUCGUACCAUAGAGCGAUUAUCCGCUCACCGAGAUCGGAAGAGCACACGU
B4: target 1 insA 3' of 10,insA 3' of 7 (mixed)
RNA 1: CACCCGUGCAAAAAUGCAGGGGUCUAAAACUGAGCGGAUAACCUCUCUAUGG
RNA 2: GGGAAUGGAUCCACAUCUACGAAUUCGUACCAUAGAGAGGUUAAUCACGCUCACCGAGAUCGGAAGAGCACACGU
B5: target 1 insA 3' of 22,insU 3' of 6 (mixed)
RNA 1: CACCCGUGCAAAAAUGCAGGGGUCUAAAACUGAGCGGAUAACCUCUCUAUGG
RNA 2: GGGAAUGGAUCCACAUCUACGAAUUCGUACACAUAGAGAGGUUAUCCUGCUCACCGAGAUCGGAAGAGCACACGU
B6: target 1 insC 3' of 13,insU 3' of 12 (mixed)
RNA 1: CACCCGUGCAAAAAUGCAGGGGUCUAAAACUGAGCGGAUAACCUCUCUAUGG
RNA 2: GGGAAUGGAUCCACAUCUACGAAUUCGUACCAUAGAGAGCGUUUAUCCGCUCACCGAGAUCGGAAGAGCACACGU
B7: target 1 G13U,G15U (mixed)
RNA 1: CACCCGUGCAAAAAUGCAGGGGUCUAAAACUGAGCGGAUAACCUCUCUAUGG
RNA 2: GGGAAUGGAUCCACAUCUACGAAUUCGUACCAUAGAUAUGUUAUCCGCUCACCGAGAUCGGAAGAGCACACGU
B8: target 1 insC 3' of 20,insG 3' of 19 (mixed)
RNA 1: CACCCGUGCAAAAAUGCAGGGGUCUAAAACUGAGCGGAUAACCUCUCUAUGG
RNA 2: GGGAAUGGAUCCACAUCUACGAAUUCGUACCACUGAGAGAGGUUAUCCGCUCACCGAGAUCGGAAGAGCACACGU
B9: target 1 U8C,U10C (mixed)
RNA 1: CACCCGUGCAAAAAUGCAGGGGUCUAAAACUGAGCGGAUAACCUCUCUAUGG
RNA 2: GGGAAUGGAUCCACAUCUACGAAUUCGUACCAUAGAGAGGUCACCCGCUCACCGAGAUCGGAAGAGCACACGU
B10: target 1 insU 3' of 9,insA 3' of 7 (mixed)
RNA 1: CACCCGUGCAAAAAUGCAGGGGUCUAAAACUGAGCGGAUAACCUCUCUAUGG
RNA 2: GGGAAUGGAUCCACAUCUACGAAUUCGUACCAUAGAGAGGUUAUUCACGCUCACCGAGAUCGGAAGAGCACACGU
B11: target 1 U10A,C22U (mixed)
RNA 1: CACCCGUGCAAAAAUGCAGGGGUCUAAAACUGAGCGGAUAACCUCUCUAUGG
RNA 2: GGGAAUGGAUCCACAUCUACGAAUUCGUAUCAUAGAGAGGUAAUCCGCUCACCGAGAUCGGAAGAGCACACGU
B12: target 1 insG 3' of 21,insA 3' of 19 (mixed)
RNA 1: CACCCGUGCAAAAAUGCAGGGGUCUAAAACUGAGCGGAUAACCUCUCUAUGG
RNA 2: GGGAAUGGAUCCACAUCUACGAAUUCGUACCGAUAAGAGAGGUUAUCCGCUCACCGAGAUCGGAAGAGCACACGU
B13: target 1 insC 3' of 17,insU 3' of 1 (mixed)
RNA 1: CACCCGUGCAAAAAUGCAGGGGUCUAAAACUGAGCGGAUAACCUCUCUAUGG
RNA 2: GGGAAUGGAUCCACAUCUACGAAUUCGUACCAUAGCAGAGGUUAUCCGCUCAUCCGAGAUCGGAAGAGCACACGU
B14: target 1 C2G,U19A (mixed)
RNA 1: CACCCGUGCAAAAAUGCAGGGGUCUAAAACUGAGCGGAUAACCUCUCUAUGG
RNA 2: GGGAAUGGAUCCACAUCUACGAAUUCGUACCAAAGAGAGGUUAUCCGCUGACCGAGAUCGGAAGAGCACACGU
B15: target 1 C4A,C22G (mixed)
RNA 1: CACCCGUGCAAAAAUGCAGGGGUCUAAAACUGAGCGGAUAACCUCUCUAUGG
RNA 2: GGGAAUGGAUCCACAUCUACGAAUUCGUAGCAUAGAGAGGUUAUCCGAUCACCGAGAUCGGAAGAGCACACGU
B16: target 1 insG 3' of 16,insG 3' of 2 (mixed)
RNA 1: CACCCGUGCAAAAAUGCAGGGGUCUAAAACUGAGCGGAUAACCUCUCUAUGG
RNA 2: GGGAAUGGAUCCACAUCUACGAAUUCGUACCAUAGAGGAGGUUAUCCGCUCGACCGAGAUCGGAAGAGCACACGU
B17: target 1 insA 3' of 3,insA 3' of 3 (mixed)
RNA 1: CACCCGUGCAAAAAUGCAGGGGUCUAAAACUGAGCGGAUAACCUCUCUAUGG
RNA 2: GGGAAUGGAUCCACAUCUACGAAUUCGUACCAUAGAGAGGUUAUCCGCUAACACCGAGAUCGGAAGAGCACACGU
B18: target 1 insG 3' of 14,insA 3' of 12 (mixed)
RNA 1: CACCCGUGCAAAAAUGCAGGGGUCUAAAACUGAGCGGAUAACCUCUCUAUGG
RNA 2: GGGAAUGGAUCCACAUCUACGAAUUCGUACCAUAGAGAGGGAUUAUCCGCUCACCGAGAUCGGAAGAGCACACGU
B19: target 1 insG 3' of 16,insA 3' of 6 (mixed)
RNA 1: CACCCGUGCAAAAAUGCAGGGGUCUAAAACUGAGCGGAUAACCUCUCUAUGG
RNA 2: GGGAAUGGAUCCACAUCUACGAAUUCGUACCAUAGAGGAGGUUAUCCAGCUCACCGAGAUCGGAAGAGCACACGU
B20: target 1 C4G,G12C (mixed)
RNA 1: CACCCGUGCAAAAAUGCAGGGGUCUAAAACUGAGCGGAUAACCUCUCUAUGG
RNA 2: GGGAAUGGAUCCACAUCUACGAAUUCGUACCAUAGAGAGCUUAUCCGGUCACCGAGAUCGGAAGAGCACACGU
B21: target 1 insU 3' of 18,insC 3' of 14 (mixed)
RNA 1: CACCCGUGCAAAAAUGCAGGGGUCUAAAACUGAGCGGAUAACCUCUCUAUGG
RNA 2: GGGAAUGGAUCCACAUCUACGAAUUCGUACCAUAUGAGACGGUUAUCCGCUCACCGAGAUCGGAAGAGCACACGU
B22: target 1 insC 3' of 12,insG 3' of 11 (mixed)
RNA 1: CACCCGUGCAAAAAUGCAGGGGUCUAAAACUGAGCGGAUAACCUCUCUAUGG
RNA 2: GGGAAUGGAUCCACAUCUACGAAUUCGUACCAUAGAGAGGCUGUAUCCGCUCACCGAGAUCGGAAGAGCACACGU
B23: target 1 insU 3' of 22,insC 3' of 3 (mixed)
RNA 1: CACCCGUGCAAAAAUGCAGGGGUCUAAAACUGAGCGGAUAACCUCUCUAUGG
RNA 2: GGGAAUGGAUCCACAUCUACGAAUUCGUACUCAUAGAGAGGUUAUCCGCUCCACCGAGAUCGGAAGAGCACACGU
B24: target 1 insC 3' of 19,insA 3' of 15 (mixed)
RNA 1: CACCCGUGCAAAAAUGCAGGGGUCUAAAACUGAGCGGAUAACCUCUCUAUGG
RNA 2: GGGAAUGGAUCCACAUCUACGAAUUCGUACCAUCAGAGAAGGUUAUCCGCUCACCGAGAUCGGAAGAGCACACGU
B25: target 1 insC 3' of 19,insU 3' of 6 (mixed)
RNA 1: CACCCGUGCAAAAAUGCAGGGGUCUAAAACUGAGCGGAUAACCUCUCUAUGG
RNA 2: GGGAAUGGAUCCACAUCUACGAAUUCGUACCAUCAGAGAGGUUAUCCUGCUCACCGAGAUCGGAAGAGCACACGU
B26: target 1 insA 3' of 22,insU 3' of 5 (mixed)
RNA 1: CACCCGUGCAAAAAUGCAGGGGUCUAAAACUGAGCGGAUAACCUCUCUAUGG
RNA 2: GGGAAUGGAUCCACAUCUACGAAUUCGUACACAUAGAGAGGUUAUCCGUCUCACCGAGAUCGGAAGAGCACACGU
B27: target 1 insG 3' of 14,insU 3' of 2 (mixed)
RNA 1: CACCCGUGCAAAAAUGCAGGGGUCUAAAACUGAGCGGAUAACCUCUCUAUGG
RNA 2: GGGAAUGGAUCCACAUCUACGAAUUCGUACCAUAGAGAGGGUUAUCCGCUCUACCGAGAUCGGAAGAGCACACGU

In the data set the target is T1, EsCas13d, nuclease-dead (Eubacterium siraeum, UniProt B0MS50, R295A;H300A;R849A;H854A).
T1 sequence: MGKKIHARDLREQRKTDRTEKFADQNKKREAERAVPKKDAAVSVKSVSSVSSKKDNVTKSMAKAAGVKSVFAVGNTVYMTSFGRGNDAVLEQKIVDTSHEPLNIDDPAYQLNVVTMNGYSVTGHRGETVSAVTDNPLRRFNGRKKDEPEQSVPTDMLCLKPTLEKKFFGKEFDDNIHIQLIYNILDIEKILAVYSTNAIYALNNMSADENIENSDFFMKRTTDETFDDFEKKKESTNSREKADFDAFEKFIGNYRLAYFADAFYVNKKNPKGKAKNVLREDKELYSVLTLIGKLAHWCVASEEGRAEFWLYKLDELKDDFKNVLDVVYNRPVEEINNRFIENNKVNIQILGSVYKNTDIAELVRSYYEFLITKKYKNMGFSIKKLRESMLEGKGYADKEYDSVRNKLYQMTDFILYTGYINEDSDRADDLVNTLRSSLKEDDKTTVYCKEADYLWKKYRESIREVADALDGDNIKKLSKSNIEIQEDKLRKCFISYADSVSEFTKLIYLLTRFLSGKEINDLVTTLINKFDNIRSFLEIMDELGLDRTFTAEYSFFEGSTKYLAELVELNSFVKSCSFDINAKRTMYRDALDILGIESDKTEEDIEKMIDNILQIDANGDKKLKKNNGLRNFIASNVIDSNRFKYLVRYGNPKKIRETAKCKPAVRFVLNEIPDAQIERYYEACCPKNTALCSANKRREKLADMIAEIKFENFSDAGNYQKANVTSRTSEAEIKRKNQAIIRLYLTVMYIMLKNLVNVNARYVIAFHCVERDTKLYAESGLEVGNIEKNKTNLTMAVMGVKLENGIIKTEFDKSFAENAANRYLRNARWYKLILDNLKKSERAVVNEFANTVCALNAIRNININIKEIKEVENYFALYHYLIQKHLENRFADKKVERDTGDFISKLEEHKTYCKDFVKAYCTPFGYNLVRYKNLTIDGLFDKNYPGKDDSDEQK
In words: crRNA (strand 1, pre-loaded); Mg2+; 40 mM Tris-HCl pH 7.5, 150 mM NaCl, 6 mM MgCl2, 1 mM DTT, 0.1% Tween-20, 0.2 mg/ml BSA; 25 C; 10 min per concentration, then washed. The following applies: tags: His6-TwinStrep-SUMO cleaved; N-terminal SNAP kept (SNAP-Surface 488); label: 3' end held by stalled T7 RNA polymerase.
By Kd is commonly meant the equilibrium constant for the complex coming apart. B1 registered a Kd of 0.024 ± 0.0019 µM. To B2 belongs 0.042 ± 0.006 µM; to B3, 0.0305 ± 0.0026 µM; to B4, 0.0104 ± 0.0005 µM.

As for B5, the Kd came out at 0.0136 ± 0.0006 µM. The Kd values of the last two molecules are within 1.5-fold of each other. On to B6, for which the Kd amounted to 0.0111 ± 0.0004 µM. This Kd and that of the molecule before are within 1.5-fold of each other. Regarding B7, the Kd worked out at 0.055 ± 0.019 µM.

Molecule B8 had a Kd of 0.047 ± 0.007 µM. For B9 the value was 0.0224 ± 0.0013 µM. To B10 belongs 0.0095 ± 0.0004 µM; to B11, 0.0208 ± 0.0028 µM. To B12 belongs 0.064 ± 0.015 µM. B13 came in with a dissociation constant Kd of 0.066 ± 0.021 µM.

With B14, binding was put at a Kd of 0.0249 ± 0.0027 µM.

As for B15, the Kd was 0.025 ± 0.008 µM. B16 yielded a Kd of 0.0144 ± 0.0025 µM.

Regarding B17, binding was put at a Kd of 0.0075 ± 0.0006 µM. To B18 belongs 0.0237 ± 0.0017 µM. To B19 belongs 0.015 ± 0.0006 µM; to B20, 0.018 ± 0.004 µM; to B21, 0.073 ± 0.023 µM.

B22 returned a Kd of 0.0117 ± 0.0008 µM. This Kd is about 6.2-fold lower than that of the molecule before. To B23 belongs 0.028 ± 0.006 µM; to B24, 0.036 ± 0.004 µM; to B25, 0.0466 ± 0.0029 µM.

B26 yielded a Kd of 0.028 ± 0.007 µM. Compared with the last molecule, the Kd is about 1.7-fold lower. In turn, B27 had a Kd of 0.0125 ± 0.0008 µM.
